Measurements as given in patent publication US11998613B2, “Antibody-drug conjugates containing an anti-mesothelin antibody and uses thereof” (DEVELOPMENT CENTER FOR BIOTECHNOLOGY, priority 2020, dated 2024).
Like-named read-outs stand apart in the source and are kept apart here. Non-standard residues stand in square brackets, D forms with d. Residues, ends and D or L forms follow the SMILES beside them. *: point of attachment. Dolaproine = CO[C@@H]([C@@H]1CCCN1)[C@@H](C)C(=O)O; Dil = CC[C@H](C)[C@H](NC)[C@@H](CC(=O)O)OC; X1 = C[C@@H](N*)[C@@H](O)c1ccccc1; NMeV = CN[C@H](C(=O)O)C(C)C

Assays:
[1] = test system: Ovarian carcinoma cell line OVCAR-3 (MSLN+); assay: In vitro cytotoxicity, CellTiter-Glo luminescent cell viability assay, OVCAR-3; type: cell-based, human; conditions: read-out: Relative IC50 (nM of toxic payload/ADCs)
Method: (§1) The KLM-1 & OVCAR-3 cell lines were maintained in an atmosphere of 5% CO2 in a humidified 37° C. incubator. The day before treatment, cells were collected and seeded into 96-well plates (4,000 cells per well). On the second day, cells were treated with 3-fold serial dilution concentration of toxic payloads and ADCs. Each treatment was performed in eight triplicate data points. After the treatment of 72 hours, cell viability was assessed by CellTiter-Glo® kit (Promega) according to the manufacturer's instruction. At the end of the incubation, luminescence was measured using a SpectraMax i3x Multi Mode Detection Platform (Molecular Devices). Compound cytotoxicity was evaluated in comparison to cells treated with 0.05% PBS (ADCs) or 0.05% DMSO (toxic payload). IC50 values were calculated by fitting viability data with a four-parameter logistic equation using GraphPad prism 5.0 software.

[2] = test system: Pancreatic cancer cell line KLM-1 (MSLN+); assay: In vitro cytotoxicity, CellTiter-Glo luminescent cell viability assay, KLM-1; type: cell-based, human; conditions: KLM-1, 72 hours treatment; read-out: Relative IC50 (nM of toxic payload/ADCs)
Method: as §1, with “Pancreatic cancer cell line KLM-1 was respectively grown in RPMI 1640 Medium (ATCC modification) medium supplemented with 10% fetal bovine serum. Ovarian carcinoma cell line OVCAR-3 was grown in RPMI 1640 Medium (ATCC modification) medium supplemented with 20% fetal bovine serum. The KLM-1” for “The KLM-1”

[3] = target: mesothelin protein (Homo sapiens, UniProt Q13421); assay: Affinity measurements and kinetic analysis using BIAcore (SPR), mesothelin immobilised; type: binding
Method: To know the biding kinetics difference among individual antibodies, surface plasmon resonance (SPR) measurement with a BIAcore T200 (Cytiva Inc.) was used as previously described (Karlsson & Falt, (1997) J. Immunol Methods 200:121-133). Carboxymethylated dextran biosensor chips (CM5, Cytiva Inc.) were activated with N-ethyl-N′-(3-dimethylaminopropyl)-carbodiimide hydrochloride (EDC) and N-hydroxysuccinimide (NHS) according to the supplier's instructions. Mesothelin protein was diluted with 10 mM sodium acetate, pH 4.0, into 5 μg/ml before injection at a flow rate of 10 μL/minute to achieve approximately 1500 response units (RU) of coupled protein followed by the injection of 1M ethanolamine to block unreacted groups. For kinetics measurements, two-fold serial dilutions of anti-mesothelin mAb (0.3125 nM to 40 nM) were injected in HBS-EP+ Biacore running buffer provided by the manufacturer (Cytiva Inc.) at 25 degree C. at a flow rate of 30 μL/min, and binding responses on the mesothelin protein were corrected by subtraction of responses on a blank flow cell. Association rates (kon or ka) and dissociation rates (koff or kd) were calculated using a simple one-to-one Langmuir binding model with separate fittings of kon and koff was used. (Cytiva.™. Biacore Insight Evaluation Software).

[4] = test system: KLM-1 human pancreatic cancer xenograft; assay: KLM-1 xenograft model (Example 45); conditions: 15 mg/kg IV once weekly for 3 weeks
Method: Formulations respectively comprising test article DCBPR2002-4(DBCO-vc-MMAE)(15 mg/kg), test article DCBPR2002-4(DBCO-vc-seco-DUBA)(15 mg/kg), test article DCBPR2002-4(DBCO-s-DM1) (15 mg/kg), test article DCBPR2002-2(DBCO-vc-MMAE)-2(DBCO-vc-seco-DUBA) (15 mg/kg), test article DCBPR2002-2(DBCO-vc-MMAE)-2(DBCO-s-DM1) (15 mg/kg), test article DCBPR2002-2(DBCO-vc-seco-DUBA)-2(DBCO-s-DM1) (15 mg/kg), and a corresponding vehicle were formulated by diluting the stock with a 25 mM sodium citrate buffer (pH6.5). Each of the formulations was administered intravenously (IV) once weekly for three weeks.
The KLM-1 cells were maintained in vitro as a monolayer culture in RPMI-1640 medium supplemented with 10% fetal bovine serum at 37° C. in an atmosphere of 5% CO2 in air. The tumor cells were routinely sub-cultured twice weekly by trypsin-EDTA treatment. The cells growing in an exponential growth phase were harvested and counted for tumor inoculation.
Male NOD SCID mice at age of 6-7 weeks were purchased from BioLasco Taiwan Co., LTD. and quarantined for one week. Five mice were housed in each cage. All animals were hosted in the animal facility with a 12-h light/12-h dark cycle at 19-25° C. Animals had free access to rodent pellet foods and water ad libitum.
KLM-1 cells were subcutaneously (SC) implanted (4×10^6 cells in 1:1 PBS/matrigel mixture at 0.1 mL per mouse) into the right flank of male NOD SCID mice. When the average tumor volume had reached 300 mm^3, the mice were randomly divided into 7 groups (N=6 per group). Each of the vehicle, DCBPR2002-4(DBCO-vc-MMAE), DCBPR2002-4(DBCO-vc-seco-DUBA), DCBPR2002-4(DBCO-s-DM1), DCBPR2002-2(DBCO-vc-MMAE)-2(DBCO-vc-seco-DUBA), DCBPR2002-2(DBCO-vc-MMAE)-2(DBCO-s-DM1), DCBPR2002-2(DBCO-vc-seco-DUBA)-2(DBCO-s-DM1) was intravenously administered as 15 mg/kg once weekly for 3 weeks.
The tumor volumes, body weights, mortality, and signs of overt toxicity were monitored and recorded three times weekly for 28 days. Tumor volumes were measured three times per week using calipers and calculated according to the formula: Tumor Volume=(w2×l)/2, where w=width and l=length in diameter (mm) of the tumor. […] One-way ANOVA followed by Dunnett's test was applied for comparison between the vehicle and test article-treated groups. Differences are considered significant at *P<0.05. Animals were weighed three times weekly until the completion of the study.

[5] = BIAcore T200, 25 degree C, 1:1 Langmuir model

mesothelin protein, sequence (Q13421 with tags, fused parts or gaps): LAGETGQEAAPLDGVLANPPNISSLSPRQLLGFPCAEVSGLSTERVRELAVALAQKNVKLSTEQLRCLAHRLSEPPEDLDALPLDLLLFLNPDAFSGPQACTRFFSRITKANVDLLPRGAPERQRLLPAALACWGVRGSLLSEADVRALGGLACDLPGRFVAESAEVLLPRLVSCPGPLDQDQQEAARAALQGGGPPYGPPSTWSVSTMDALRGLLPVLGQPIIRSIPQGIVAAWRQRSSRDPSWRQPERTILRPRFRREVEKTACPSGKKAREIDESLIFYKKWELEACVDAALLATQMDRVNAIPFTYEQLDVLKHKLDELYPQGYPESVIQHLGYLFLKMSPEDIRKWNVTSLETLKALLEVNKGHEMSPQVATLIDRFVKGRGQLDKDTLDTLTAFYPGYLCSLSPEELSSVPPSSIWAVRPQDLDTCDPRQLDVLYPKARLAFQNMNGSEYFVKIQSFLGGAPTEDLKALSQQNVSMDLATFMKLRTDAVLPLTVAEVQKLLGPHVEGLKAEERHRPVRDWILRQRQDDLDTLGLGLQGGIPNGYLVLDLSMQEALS

| Molecule | IC50 ([1]; OVCAR-3, 72 hours treatment) [nM] | IC50 [2] [nM] | body weight changes [4] | ranking of efficacy potency [4] | further results |
| --- | --- | --- | --- | --- | --- |
| COc1cc2cc(c1Cl)N(C)C(=O)C[C@H](OC(=O)[C@H](C)N(C)C(=O)CCS)[C@]1(C)O[C@H]1[C@H](C)[C@@H]1C[C@@](O)(NC(=O)O1)[C@H](OC)/C=C/C=C(\C)C2 [DM1, reference compound] | 1.6 | 2.1 | – | – | – |
| CC[C@@]1(O)C(=O)OCc2c1cc1n(c2=O)Cc2c-1nc1cc(F)c(C)c3c1c2[C@@H](NC(=O)CO)CC3 [DXd, reference compound] | > 100 | – | – | – | – |
| CC[C@@]1(O)C(=O)OCc2c1cc1n(c2=O)Cc2c-1nc1cc(F)c(C)c3c1c2[C@@H](N)CC3 [Exatecan, reference compound] | – | – | – | – | IC50 ([1]; Homo sapiens, OVCAR-3, 72 h): 20.1 nM |
| CC[C@H](C)[C@@H]([C@@H](CC(=O)N1CCC[C@H]1[C@H](OC)[C@@H](C)C(=O)N[C@H](C)[C@@H](O)c1ccccc1)OC)N(C)C(=O)[C@@H](NC(=O)[C@@H](NC)C(C)C)C(C)C [MMAE, monomethyl auristatin E, reference compound] (H-[NMeV]V[Dil][Dolaproine]-X1) | 0.3 | 0.3 | – | – | – |
| SS1: mouse anti-mesothelin antibody clone SS1, SEQ ID NOs: 7 and 8, of U.S. Pat. No. 7,081,518 B1; expressed as human Fc chimera [reference compound] | – | – | – | – | Rmax(RU) ([3]; BIAcore T200): 218.2 RU; ka [3, 5]: 3.415e+06 M⁻¹ s⁻¹; kd [3, 5]: 1.194e-05 s⁻¹; kd ([3]; BIAcore T200, 25 degree C, 1:1 Langmuir model, listed as chimera SS1 mAb): 1.194e-05 s⁻¹ |
| DCBPR2002-2(DBCO-vc-seco-DUBA)-2(DBCO-s-DM1): dual-payload ADC: DCBPR2002-2(DBCO-vc-seco DUBA)-2Az reacted with DBCO-S-DM1; DAR ~4 (conjugate) VH: QVQLVQSGAEVKKPGASVKVSCKASGYSFTGYTMNWVRQAPGQGLEWMGLITPYNGASSYNQKFRGRVTMTRDTSISTAYMELSRLRSDDTAVYYCARGGYDGRGFDYWGQGTLVTVSS VL: EIVLTQSPATLSLSPGERATLSCSASSSVSYMHWYQQKPGQAPRLLIYDTSKLASGIPARFSGSGSGTDFTLTISSLEPEDFAVYYCQQWSKHPLTFGQGTKVEIKR | 36.3 | 27 | No body weight loss was observed | DCBPR2002-4(DBCO-vc-seco-DUBA)=DCBPR2002-2(DBCO-vc-MMAE)-2(DBCO-vc-seco-DUBA)=DCBPR2002-2(DBCO-vc-seco-DUBA)-2(DBCO-s-DM1)>DCBPR2002-4(DBCO-vc-MMAE)>DCBPR2002-2(DBCO-vc-MMAE)-2(DBCO-s-DM1)>DCBPR2002-4(DBCO-s-DM1) | – |
| DCBPR2002-2(DBCO-vc-MMAE)-2(DBCO-s-DM1): dual-payload ADC: DCBPR2002-2(DBCO-vc-MMAE)-2Az reacted with DBCO-S-DM1; DAR ~4 (conjugate) VH: QVQLVQSGAEVKKPGASVKVSCKASGYSFTGYTMNWVRQAPGQGLEWMGLITPYNGASSYNQKFRGRVTMTRDTSISTAYMELSRLRSDDTAVYYCARGGYDGRGFDYWGQGTLVTVSS VL: EIVLTQSPATLSLSPGERATLSCSASSSVSYMHWYQQKPGQAPRLLIYDTSKLASGIPARFSGSGSGTDFTLTISSLEPEDFAVYYCQQWSKHPLTFGQGTKVEIKR | 4.6 | 15.4 | No body weight loss was observed | DCBPR2002-4(DBCO-vc-seco-DUBA)=DCBPR2002-2(DBCO-vc-MMAE)-2(DBCO-vc-seco-DUBA)=DCBPR2002-2(DBCO-vc-seco-DUBA)-2(DBCO-s-DM1)>DCBPR2002-4(DBCO-vc-MMAE)>DCBPR2002-2(DBCO-vc-MMAE)-2(DBCO-s-DM1)>DCBPR2002-4(DBCO-s-DM1) | – |
| DCBPR2002-4(DBCO-s-DM1) (conjugate) VH: QVQLVQSGAEVKKPGASVKVSCKASGYSFTGYTMNWVRQAPGQGLEWMGLITPYNGASSYNQKFRGRVTMTRDTSISTAYMELSRLRSDDTAVYYCARGGYDGRGFDYWGQGTLVTVSS VL: EIVLTQSPATLSLSPGERATLSCSASSSVSYMHWYQQKPGQAPRLLIYDTSKLASGIPARFSGSGSGTDFTLTISSLEPEDFAVYYCQQWSKHPLTFGQGTKVEIKR | 2.6 | 13.9 | No body weight loss was observed | DCBPR2002-4(DBCO-vc-seco-DUBA)=DCBPR2002-2(DBCO-vc-MMAE)-2(DBCO-vc-seco-DUBA)=DCBPR2002-2(DBCO-vc-seco-DUBA)-2(DBCO-s-DM1)>DCBPR2002-4(DBCO-vc-MMAE)>DCBPR2002-2(DBCO-vc-MMAE)-2(DBCO-s-DM1)>DCBPR2002-4(DBCO-s-DM1) | – |
